From US7842469B2, “Bioluminescence resonance energy transfer (BRET) systems and methods of use thereof” (Stanford University, priority 2005, dated 2010)
Where two headings read alike, the source gives them in different places.

Assays:
[1] = Luciferase activity of purified RLuc mutants (light output integrated over 10 s, luminometer); format: biochemical
Method in brief: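 Purified RLuc mutant sample, diluted in EB with 1% HSA, added to room-temperature 100 mM sodium phosphate (pH 7), then 1 μl of 0.5 μg/μl coelenterazine or analog mixed in manually. Light read for 10 s starting ~4 s after luciferin addition. Luminometer calibrated to photons/s against luminol standard in DMSO.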

[2] = Serum stability in mouse serum at 37° C.; format: in vitro ADME; conditions: mouse serum, 37° C., mono-exponential fit
Method in brief: (§1)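 Luciferase diluted into mouse or rat serum at 37° C; aliquots withdrawn over time for activity, half-life from mono-exponential decay fit. Emission spectra recorded at ambient temperature with a grating spectrometer and cooled CCD detector.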

[3] = Serum stability in rat serum at 37° C.; format: in vitro ADME; conditions: mono-exponential fit
Method in brief: as §1

[4] = Bioluminescence emission spectra; format: physicochemical; conditions: emission spectrum with native coelenterazine
Method in brief: as §1

[5] = Quantum yield measurements; format: biochemical; conditions: for Quantum Yield (%) bc: benzyl-coelenterazine; for Quantum Yield (%) bdc: bisdeoxycoelenterazine; for Quantum Yield (%) cp: coelenterazine-cp; for Quantum Yield (%) n: coelenterazine-n; for Quantum Yield (%) native: native coelenterazine
Procedure: For quantum yield measurements, separate 1 μl drops of protein (about 2 pm) and substrate (0.2 pm) were placed in a tube, 100 μl of 100 mM sodium phosphate buffer (pH 7) was injected by the luminometer to mix, and the total light output was integrated (generally 5-10 min). For coelenterazine-n, the protein amount was increased 10 fold and the acquisition time lengthened to insure the reaction approached completion.

[6] = Kinetics (Michaelis-Menten fit to initial reaction velocity); format: biochemical; conditions: for Km / kcat: coelenterazine 0.038 to 24 μM, formal standard error of fit
Procedure: Kinetics: Kinetics were assessed by injecting 100 μl of 100 mM sodium phosphate buffer (pH 7) containing coelenterazine onto 1 μl of protein (diluted appropriately in EB containing 1% HSA), and recording the light output for 20 min. The final coelenterazine concentrations tested were 118, 24, 4.7, 0.94, 0.19, and 0.038 μM. The final Luciferase concentrations were in the range of 1-7 pM. Coelenterazine absorbance was corrected for, although this was only significant for the highest concentration (10% attenuation). The values were converted from photons/s to molecules/s using the data from the quantum yield measurements, converted from flux units to mass units via integration, and processed using the kinetic curve fitting program Dynafit.

293T cells = experiment: Mammalian expression, transient transfection, light output in 293T cells; format: cell-based, human; conditions: pcDNA 3.1 CMV plasmid, 24 hours post transfection, coelenterazine
Description: (§2) Mammalian Expression: In order to construct mammalian expression vectors, bacterial expression vectors containing the desired mutations were used as templates for PCR, with primers designed such that the N-terminal pelB sequence would be replaced by a methionine codon and a C-terminal stop codon would replace the Myc epitope and 6×His tag. The primers also contained appropriate NheI and HindIII restriction sites to allow insertion of the product into the pcDNA 3.1 plasmid (Invitrogen). The resultant plasmids were transiently transfected using SuperFect (Qiagen) into 293T or Chinese Hamster Ovarian (CHO, ATCC# CCL-61) cells growing in 24 well plates following the manufacturer's protocol. Twenty-four hours post transfection, 0.5 μg/well of coelenterazine was added, and the plates were imaged in an IVIS 50 imaging system (Xenogen, Alameda, Calif.).

CHO cells = experiment: Mammalian expression, transient transfection, light output in CHO cells; format: cell-based, Chinese Hamster; conditions: pcDNA 3.1 CMV plasmid, 24 hours post transfection, coelenterazine
Description: as §2

[7] = system: 293T cells implanted in nude mice; experiment: In vivo animal imaging of BRET^2 expression with cooled CCD camera; design: species or system mouse; conditions: 3×10^6 transfected 293T cells s.c. in nude mice, DBC i.v.
Procedure: In Vivo Animal Imaging of BRET^2 Expression by Using a Cooled CCD Camera: 293T cells transiently transfected with either phRluc or pBRET^2 were harvested 24 hours post-transfection and resuspended in PBS. An aliquot of 3×10^6 cells each was injected s.c. in a set of 3 anesthetized (ketamine:xylazine 4:1) nude mice. One hour after cell injection, 20 μg/mouse of DBC diluted in D-PBS (100 μl total volume) was injected via tail vein (i.v.) and imaged immediately using the CCD camera. For the deep tissue signal detection experiment, 3×10^6 cells each were injected intravenously in another set of anesthetized nude mice, and a scan was performed half an hour later after 100 μg/mouse of DBC injection. For protein-protein interaction experiments, 293T cells were transiently transfected with either pBRET^2, pFKBP12-hRluc alone or co-transfected with pFKBP12-hRluc and pGFP^2-FRB in 1:1 DNA ratio. The cells were harvested 24 hours post-transfection and re-suspended in PBS after counting the cell number. An aliquot of 5×10^6 cells each was injected s.c. in a set of 6 nude mice. Three of these mice were kept aside, while the other 3 mice received single dose of 5 mg/kg rapamycin intra-peritonially (i.p.). After 7 hours, mice were injected intravenously with 25 μg of DBC/mouse and imaged using specified filters. […]

[8] = RLuc purified directly from Renilla reniformis; cited from earlier work
[9] = cited from earlier work
[10] = recombinant RLuc, hamster blood at 37° C.; cited from earlier work
[11] = system: HT1080 fibro-sarcoma cells; experiment: BRET vectors with RLuc mutants fused to GFP^2, CCD camera spectral imaging in cells; format: cell-based; conditions: Coelenterazine400a; normalized with CMV-FLuc; P<0.01
Procedure: Methods: Three different mutations of RLuc, a single mutation C124A, a double mutation C124A/M185V, and a combination of eight mutations called RLuc8, were fused with GFP^2 and tested in HT1080 fibro-sarcoma cells by using CCD camera based spectral imaging. The new vectors were also tested in a small animal tumor model with implanted cells at various tissue depths.
FIG. 7 illustrates a comparative chart showing normalized donor (RLUC) and acceptor (GFP2) signal as measured from 293T cells transiently transfected with the marked plasmid vectors. BRET2 represents GFP2-Rluc, BRET-C represents GFP2-Rluc C124A, BRET-M represents Rluc C124A/M185V, BRET-Rl8 represents GFP2-Rluc8, RL represents Rluc, RL-C represents RLuc C124A, RL-M represents RLuc C124A/M185V, and Rl8 represents Rluc8. CCD camera scans were performed by adding Coelenterazine400a to the well plates. The cells were co-transfected with CMV-FLuc plasmid and scaned at the same time using D-Luciferin substrate for normalization purposes.
FIGS. 8A and 8B illustrate comparative assessments on signal quantification from HT1080 cells stably over-expressing GFP2-Rluc8 (8A) and GFP2-Rluc (8B) plasmid vectors. […] The line represents the calculated BRET ratios at each time point of measurements. […]

Molecule | Serum τ1/2 (h) mouse [2] [h] | Serum τ1/2 (h) rat [3] [h] | Wavelength (nm) mean [4] [nm] | Wavelength (nm) peak [4] [nm] | Quantum Yield (%) bc [5] [%] | Quantum Yield (%) bdc [5] | Quantum Yield (%) cp [5] [%] | Quantum Yield (%) n [5] [%] | Quantum Yield (%) native [5] [%] | Km [6] [µM] | kcat [6] [s⁻¹] | Light output after transient transfection, 293T (293T cells) | Light output after transient transfection, CHO (CHO cells) | also measured
Native RLuc: Luciferase from Renilla reniformis, native enzyme (SEQ ID NO: 1) (protein, Chemically synthesized Renilla Luciferase) MASKVYDPEQRKRMITGPQWWARCKQMNVLDSFINYYDSEKHAENAVIFLHGNAASSYLWRHVVPHIEPVARCIIPDLIGMGKSGKSGNGSYRLLDHYKYLTAWFELLNLPKKIIFVGHDWGACLAFHYSYEHQDKIKAIVHAESVVDVIESWDEWPDIEEDIALIKSEEGEKMVLENNFFVETMLPSKIMRKLEPEEFAAYLEPFKEKGEVRRPTLSWPREIPLVKGGKPDVVQIVRNYNAYLRASDDLPKMFIESDPGFFSNAIVEGAKKFPNTEFVKVKGLHFSQEDAPDEMGKYIKSFVERVLKNEQ | 0.9 | 0.4 | 497 | 482 | 3.2 ± 0.04 | (6.1 ± 0.9) × 10^−3% | 4.7 ± 0.03 | 6.1 ± 0.2 | 5.3 ± 0.1 | 2.9 ± 1 | 3.9 ± 0.4 | 22.5 ± 0.7 photons × 10^6/s/cm^2/steradian | 11.7 ± 1.2 photons × 10^6/s/cm^2/steradian | Activity (photons/s/mole enzyme) bc ([1]; benzyl-coelenterazine, 10 s integration, absolute units): 5.4 × 10^22 photons/s/mole enzyme; Activity (photons/s/mole enzyme) bdc ([1]; bisdeoxycoelenterazine, 10 s integration, absolute units (overestimation per footnote)): 5.8 × 10^19 photons/s/mole enzyme; Activity (photons/s/mole enzyme) cp ([1]; coelenterazine-cp, 10 s integration, absolute units): 1.7 × 10^22 photons/s/mole enzyme; Activity (photons/s/mole enzyme) n ([1]; coelenterazine-n, 10 s integration, absolute units): 8.3 × 10^21 photons/s/mole enzyme; Activity (photons/s/mole enzyme) native ([1]; native coelenterazine, 10 s integration, absolute units): (3.2 ± 0.3) × 10^22 photons/s/mole enzyme; Peak light flux ([6]; recombinant RLuc, 24 μM coelenterazine): 1.2±0.2×10^23 photons/s/mole enzyme; average radiance on GFP^2 filter, subcutaneous implants [7]: 0.342±0.031×10^3 photons/sec/cm^2/steradian; previously published emission peak [8]: 482 nm; reported peak light flux ([9]; RLuc purified directly from Renilla reniformis): 6.5×10^22 photons/s/mole enzyme; Km ([9]; in the presence of benzyl-coelenterazine, read-out: previously published Km): 2 µM; reported peak light flux ([9]; recombinant RLuc): 9×10^22 photons/s/mole enzyme; half-life in hamster blood [10]: 36 min
C124A: RLuc with the C124A mutation (C152A in Liu and Escher), with Myc epitope (protein, Myc epitope tag; Chemically synthesized Renilla Luciferase) MASKVYDPEQRKRMITGPQWWARCKQMNVLDSFINYYDSEKHAENAVIFLHGNAASSYLWRHVVPHIEPVARCIIPDLIGMGKSGKSGNGSYRLLDHYKYLTAWFELLNLPKKIIFVGHDWGAALAFHYSYEHQDKIKAIVHAESVVDVIESWDEWPDIEEDIALIKSEEGEKMVLENNFFVETMLPSKIMRKLEPEEFAAYLEPFKEKGEVRRPTLSWPREIPLVKGGKPDVVQIVRNYNAYLRASDDLPKMFIESDPGFFSNAIVEGAKKFPNTEFVKVKGLHFSQEDAPDEMGKYIKSFVERVLKNEQ | 7.1 ± 0.4 | 6.6 ± 0.5 | 498 | 482 | 3.6 ± 0.1 | (7.7 ± 0.5) × 10^−3% | 5.2 ± 0.1 | 6.4 ± 0.01 | 5.4 ± 0.3 | 2.7 ± 0.8 | 4.7 ± 0.4 | 62.8 ± 12.9 photons × 10^6/s/cm^2/steradian | 64.0 ± 4.9 photons × 10^6/s/cm^2/steradian | Activity (relative to RLuc) bc ([1]; benzyl-coelenterazine, relative to native enzyme): 0.75; Activity (relative to RLuc) bdc ([1]; bisdeoxycoelenterazine, relative to native enzyme): 0.68; Activity (relative to RLuc) cp ([1]; coelenterazine-cp, relative to native enzyme): 0.79; Activity (relative to RLuc) n ([1]; coelenterazine-n, relative to native enzyme): 0.63; Activity (relative to RLuc) native ([1]; native coelenterazine, relative to native enzyme): 1.2 ± 0.1; increase of normalized luciferase signal in comparison to cells expressing GFP^2-RLUC [11]: No significant improvements
